# Tested on: AncSZ
# Assay: phosphorylation enrichment, bacterial display (enrichment ratio); higher = better substrate or ligand; peptides without Tyr show the background
# 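Also: 11-residue human phosphosite peptides and single-mutation variants displayed on the E. coli surface, counted by deep sequencing, each peptide's frequency after selection divided by its frequency in the unselected input library; frequency after pTyr selection over input frequency; kinase dosed for 20-30% of maximal phosphorylation in three min.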
row,Sequence,phosphorylation enrichment
1,RSFSPCDFQPC [TNS1_Y796_Y796C_YF],0.83
2,GESVSYLFSHV [PRPS1_Y311],0.872
3,ASELGYVFQAI [UROD_Y133],1.03
4,GFEVVYVTEPI [HSP90AB1_Y512_M513V],1.1
5,FKIFRYTLNDN [FN1_Y1975_L1974R_YF],1.02
6,SVTCTYSPALT [TP53_Y126_N131T],1.75
7,AALKLYHVSDS [VIL1_Y256],0.815
8,TFHNTYHSQMR [IL1RAPL1_Y615],0.631
9,DGLASYLDKVR [KRT12_Y139_R135G],0.664
10,LSIQTYSALNF [DES_Y423_P419S],1.58
11,TPLSAYQIPRT [GAB2_Y324],0.593
12,ADNQRYAFMPL [TMEM87B_Y460_N456D],0.728
13,TGILLYGLASR [QARS1_Y57],0.885
14,TVLEPYADPYY [ZC3H18_Y367],2.42
15,WQQQSYLDSGS [CTNNB1_Y30_I35S],0.781
16,DPHQQYFIAMD [TBX15_Y159_YF],0.93
17,VMIYAYLLHRG [PTEN_Y138_C136Y],0.821

row,Sequence,phosphorylation enrichment
1,SGPRRYNIAAL [TTR_Y125_T126N],0.572
2,EQLRAYLEGEC [HLA-C_Y183_T187E],1.3
3,HQNGTYGLHQD [SGSH_Y89_M88T],0.615
4,KYVKMCDNHQL [MYO9A_Y203_Y203C],0.635
5,RLLVLYPWTQR [HBB_Y36_V35L],1.42
6,IGMSSYVMLAS [GGCX_Y301_F299S],1.34
7,DTCPPYVLSQV [GJB4_Y237_G242V],1.01
8,TGTQLYGRFGS [ITGA2B_Y384],0.619
9,NPSYNYEIVNQ [DYNC1H1_Y3379_R3384Q],0.885
10,SFLSYYTSHVQ [NEFL_Y443_P440L],1.01
11,DDKQPYEKKAE [HMGB1_Y144_A149E],1.12
12,IRTDAYVQAMT [RPE65_Y89_R91Q],0.543
13,MSIWPYLQKID [MFSD8_Y63],0.789
14,NGRTGYVLQPE [PLCG2_Y1036],0.588
15,DGKFSYLKVGH [GRM3_Y480_G475D_YF],0.678
16,YRIGPYQPNVP [MATR3_Y784],0.685

# Biological target: EPHB1 (UniProt P54762)
# Sequence (P54762 whole entry, looked up): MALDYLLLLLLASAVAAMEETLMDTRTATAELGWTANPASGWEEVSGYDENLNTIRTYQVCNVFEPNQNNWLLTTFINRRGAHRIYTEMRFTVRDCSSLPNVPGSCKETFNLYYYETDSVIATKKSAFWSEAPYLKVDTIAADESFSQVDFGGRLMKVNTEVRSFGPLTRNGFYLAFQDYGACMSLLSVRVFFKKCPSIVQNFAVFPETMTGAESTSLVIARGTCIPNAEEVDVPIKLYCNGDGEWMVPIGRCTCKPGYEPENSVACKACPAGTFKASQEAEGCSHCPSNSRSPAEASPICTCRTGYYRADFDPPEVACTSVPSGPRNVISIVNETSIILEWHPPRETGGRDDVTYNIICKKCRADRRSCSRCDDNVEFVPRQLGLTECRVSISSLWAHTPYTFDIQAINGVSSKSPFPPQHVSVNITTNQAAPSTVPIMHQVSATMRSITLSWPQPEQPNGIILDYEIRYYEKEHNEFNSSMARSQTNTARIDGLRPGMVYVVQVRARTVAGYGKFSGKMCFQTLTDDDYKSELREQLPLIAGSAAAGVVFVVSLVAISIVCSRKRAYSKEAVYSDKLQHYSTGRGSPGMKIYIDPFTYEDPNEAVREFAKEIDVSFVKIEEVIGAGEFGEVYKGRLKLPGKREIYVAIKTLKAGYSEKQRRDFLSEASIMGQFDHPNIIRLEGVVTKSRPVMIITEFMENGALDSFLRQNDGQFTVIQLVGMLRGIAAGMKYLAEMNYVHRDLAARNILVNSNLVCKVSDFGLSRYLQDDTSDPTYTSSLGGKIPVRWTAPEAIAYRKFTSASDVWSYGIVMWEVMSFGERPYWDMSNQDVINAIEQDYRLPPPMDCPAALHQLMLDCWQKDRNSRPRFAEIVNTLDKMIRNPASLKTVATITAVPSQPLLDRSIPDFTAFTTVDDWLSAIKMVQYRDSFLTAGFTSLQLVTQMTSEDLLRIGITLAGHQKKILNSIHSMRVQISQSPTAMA
# Assay: as above
row,Sequence,phosphorylation enrichment
1,RSFSPCDFQPC [TNS1_Y796_Y796C_YF],0.54
2,GESVSYLFSHV [PRPS1_Y311],0.511
3,ASELGYVFQAI [UROD_Y133],0.471
4,GFEVVYVTEPI [HSP90AB1_Y512_M513V],0.344
5,FKIFRYTLNDN [FN1_Y1975_L1974R_YF],0.518
6,SVTCTYSPALT [TP53_Y126_N131T],0.872
7,AALKLYHVSDS [VIL1_Y256],0.493
8,TFHNTYHSQMR [IL1RAPL1_Y615],0.33
9,DGLASYLDKVR [KRT12_Y139_R135G],0.41
10,LSIQTYSALNF [DES_Y423_P419S],3.92
11,TPLSAYQIPRT [GAB2_Y324],0.415
12,ADNQRYAFMPL [TMEM87B_Y460_N456D],1.07
13,TGILLYGLASR [QARS1_Y57],0.964
14,TVLEPYADPYY [ZC3H18_Y367],0.566
15,WQQQSYLDSGS [CTNNB1_Y30_I35S],0.436
16,DPHQQYFIAMD [TBX15_Y159_YF],0.504
17,VMIYAYLLHRG [PTEN_Y138_C136Y],0.479

row,Sequence,phosphorylation enrichment
1,SGPRRYNIAAL [TTR_Y125_T126N],0.285
2,EQLRAYLEGEC [HLA-C_Y183_T187E],0.775
3,HQNGTYGLHQD [SGSH_Y89_M88T],0.418
4,KYVKMCDNHQL [MYO9A_Y203_Y203C],0.442
5,RLLVLYPWTQR [HBB_Y36_V35L],0.681
6,IGMSSYVMLAS [GGCX_Y301_F299S],0.853
7,DTCPPYVLSQV [GJB4_Y237_G242V],0.685
8,TGTQLYGRFGS [ITGA2B_Y384],0.351
9,NPSYNYEIVNQ [DYNC1H1_Y3379_R3384Q],10.5
10,SFLSYYTSHVQ [NEFL_Y443_P440L],1.26
11,DDKQPYEKKAE [HMGB1_Y144_A149E],0.516
12,IRTDAYVQAMT [RPE65_Y89_R91Q],0.378
13,MSIWPYLQKID [MFSD8_Y63],0.667
14,NGRTGYVLQPE [PLCG2_Y1036],0.435
15,DGKFSYLKVGH [GRM3_Y480_G475D_YF],0.444
16,YRIGPYQPNVP [MATR3_Y784],0.565

# Biological target: EPHB2 (UniProt P29323)
# Sequence (P29323 whole entry, looked up): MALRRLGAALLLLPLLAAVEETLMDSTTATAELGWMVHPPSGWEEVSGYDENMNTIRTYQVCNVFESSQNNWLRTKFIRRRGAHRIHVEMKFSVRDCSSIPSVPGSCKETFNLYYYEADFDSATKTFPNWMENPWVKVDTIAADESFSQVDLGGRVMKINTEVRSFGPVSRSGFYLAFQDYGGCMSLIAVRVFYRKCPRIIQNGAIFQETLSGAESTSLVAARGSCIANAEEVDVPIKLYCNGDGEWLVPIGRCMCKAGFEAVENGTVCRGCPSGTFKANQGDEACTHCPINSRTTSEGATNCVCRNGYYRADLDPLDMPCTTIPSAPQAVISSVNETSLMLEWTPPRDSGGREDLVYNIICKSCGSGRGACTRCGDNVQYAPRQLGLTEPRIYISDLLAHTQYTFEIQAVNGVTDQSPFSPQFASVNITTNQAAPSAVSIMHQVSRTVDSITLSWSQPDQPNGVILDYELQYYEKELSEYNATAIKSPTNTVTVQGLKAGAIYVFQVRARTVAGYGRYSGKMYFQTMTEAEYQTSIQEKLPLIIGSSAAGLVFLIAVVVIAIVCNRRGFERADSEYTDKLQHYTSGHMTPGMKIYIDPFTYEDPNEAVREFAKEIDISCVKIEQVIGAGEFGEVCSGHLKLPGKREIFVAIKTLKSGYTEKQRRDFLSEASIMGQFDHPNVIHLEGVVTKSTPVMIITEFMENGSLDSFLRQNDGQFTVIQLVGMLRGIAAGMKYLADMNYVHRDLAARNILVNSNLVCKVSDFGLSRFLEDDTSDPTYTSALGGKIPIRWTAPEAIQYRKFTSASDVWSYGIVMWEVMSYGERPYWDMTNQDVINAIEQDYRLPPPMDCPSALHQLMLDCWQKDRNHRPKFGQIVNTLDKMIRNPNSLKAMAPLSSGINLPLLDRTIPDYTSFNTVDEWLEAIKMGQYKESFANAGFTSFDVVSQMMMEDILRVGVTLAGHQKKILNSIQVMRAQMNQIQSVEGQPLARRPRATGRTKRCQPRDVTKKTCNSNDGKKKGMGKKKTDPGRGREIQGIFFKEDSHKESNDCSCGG
# Assay: as above
row,Sequence,phosphorylation enrichment
1,RSFSPCDFQPC [TNS1_Y796_Y796C_YF],0.991
2,GESVSYLFSHV [PRPS1_Y311],0.473
3,ASELGYVFQAI [UROD_Y133],0.566
4,GFEVVYVTEPI [HSP90AB1_Y512_M513V],0.465
5,FKIFRYTLNDN [FN1_Y1975_L1974R_YF],0.525
6,SVTCTYSPALT [TP53_Y126_N131T],0.615
7,AALKLYHVSDS [VIL1_Y256],0.558
8,TFHNTYHSQMR [IL1RAPL1_Y615],0.411
9,DGLASYLDKVR [KRT12_Y139_R135G],0.414
10,LSIQTYSALNF [DES_Y423_P419S],4.34
11,TPLSAYQIPRT [GAB2_Y324],0.466
12,ADNQRYAFMPL [TMEM87B_Y460_N456D],0.663
13,TGILLYGLASR [QARS1_Y57],1.38
14,TVLEPYADPYY [ZC3H18_Y367],0.697
15,WQQQSYLDSGS [CTNNB1_Y30_I35S],0.528
16,DPHQQYFIAMD [TBX15_Y159_YF],0.577
17,VMIYAYLLHRG [PTEN_Y138_C136Y],0.455

row,Sequence,phosphorylation enrichment
1,SGPRRYNIAAL [TTR_Y125_T126N],0.343
2,EQLRAYLEGEC [HLA-C_Y183_T187E],0.623
3,HQNGTYGLHQD [SGSH_Y89_M88T],0.541
4,KYVKMCDNHQL [MYO9A_Y203_Y203C],0.632
5,RLLVLYPWTQR [HBB_Y36_V35L],0.98
6,IGMSSYVMLAS [GGCX_Y301_F299S],0.655
7,DTCPPYVLSQV [GJB4_Y237_G242V],0.635
8,TGTQLYGRFGS [ITGA2B_Y384],0.498
9,NPSYNYEIVNQ [DYNC1H1_Y3379_R3384Q],4.17
10,SFLSYYTSHVQ [NEFL_Y443_P440L],1.01
11,DDKQPYEKKAE [HMGB1_Y144_A149E],0.645
12,IRTDAYVQAMT [RPE65_Y89_R91Q],0.471
13,MSIWPYLQKID [MFSD8_Y63],0.472
14,NGRTGYVLQPE [PLCG2_Y1036],0.384
15,DGKFSYLKVGH [GRM3_Y480_G475D_YF],0.388
16,YRIGPYQPNVP [MATR3_Y784],0.504

# Biological target: FGFR1 (UniProt P11362)
# Sequence (P11362 whole entry, looked up): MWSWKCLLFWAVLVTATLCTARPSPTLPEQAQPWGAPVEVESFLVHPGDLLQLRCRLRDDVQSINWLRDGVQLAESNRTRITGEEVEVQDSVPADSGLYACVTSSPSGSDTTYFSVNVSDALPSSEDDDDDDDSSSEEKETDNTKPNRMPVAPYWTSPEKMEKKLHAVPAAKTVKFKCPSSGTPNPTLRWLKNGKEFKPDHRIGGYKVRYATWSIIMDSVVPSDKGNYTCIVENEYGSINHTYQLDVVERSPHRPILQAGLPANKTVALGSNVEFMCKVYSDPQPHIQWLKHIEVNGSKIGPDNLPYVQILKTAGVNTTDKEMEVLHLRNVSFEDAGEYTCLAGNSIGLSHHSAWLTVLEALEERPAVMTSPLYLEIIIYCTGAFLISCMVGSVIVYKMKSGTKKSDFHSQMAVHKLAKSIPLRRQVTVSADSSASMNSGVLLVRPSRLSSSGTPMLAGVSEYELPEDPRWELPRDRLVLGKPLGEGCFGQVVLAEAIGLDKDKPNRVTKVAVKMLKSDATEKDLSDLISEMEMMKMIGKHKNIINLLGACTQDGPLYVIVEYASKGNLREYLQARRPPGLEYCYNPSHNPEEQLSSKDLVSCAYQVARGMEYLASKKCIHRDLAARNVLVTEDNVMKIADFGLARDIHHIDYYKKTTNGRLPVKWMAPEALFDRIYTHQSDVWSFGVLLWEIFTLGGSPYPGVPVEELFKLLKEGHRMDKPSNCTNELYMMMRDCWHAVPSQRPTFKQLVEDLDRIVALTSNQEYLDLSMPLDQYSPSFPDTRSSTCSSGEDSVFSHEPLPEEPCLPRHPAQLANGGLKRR
# Assay: as above
row,Sequence,phosphorylation enrichment
1,RSFSPCDFQPC [TNS1_Y796_Y796C_YF],0.672
2,GESVSYLFSHV [PRPS1_Y311],0.397
3,ASELGYVFQAI [UROD_Y133],0.483
4,GFEVVYVTEPI [HSP90AB1_Y512_M513V],0.443
5,FKIFRYTLNDN [FN1_Y1975_L1974R_YF],0.529
6,SVTCTYSPALT [TP53_Y126_N131T],0.524
7,AALKLYHVSDS [VIL1_Y256],0.511
8,TFHNTYHSQMR [IL1RAPL1_Y615],0.458
9,DGLASYLDKVR [KRT12_Y139_R135G],0.363
10,LSIQTYSALNF [DES_Y423_P419S],0.991
11,TPLSAYQIPRT [GAB2_Y324],0.408
12,ADNQRYAFMPL [TMEM87B_Y460_N456D],0.733
13,TGILLYGLASR [QARS1_Y57],0.529
14,TVLEPYADPYY [ZC3H18_Y367],0.785
15,WQQQSYLDSGS [CTNNB1_Y30_I35S],0.561
16,DPHQQYFIAMD [TBX15_Y159_YF],1.02
17,VMIYAYLLHRG [PTEN_Y138_C136Y],0.351

row,Sequence,phosphorylation enrichment
1,SGPRRYNIAAL [TTR_Y125_T126N],0.505
2,EQLRAYLEGEC [HLA-C_Y183_T187E],0.514
3,HQNGTYGLHQD [SGSH_Y89_M88T],0.71
4,KYVKMCDNHQL [MYO9A_Y203_Y203C],0.532
5,RLLVLYPWTQR [HBB_Y36_V35L],0.886
6,IGMSSYVMLAS [GGCX_Y301_F299S],1.88
7,DTCPPYVLSQV [GJB4_Y237_G242V],0.475
8,TGTQLYGRFGS [ITGA2B_Y384],0.451
9,NPSYNYEIVNQ [DYNC1H1_Y3379_R3384Q],0.583
10,SFLSYYTSHVQ [NEFL_Y443_P440L],1.04
11,DDKQPYEKKAE [HMGB1_Y144_A149E],0.529
12,IRTDAYVQAMT [RPE65_Y89_R91Q],0.458
13,MSIWPYLQKID [MFSD8_Y63],0.422
14,NGRTGYVLQPE [PLCG2_Y1036],0.383
15,DGKFSYLKVGH [GRM3_Y480_G475D_YF],0.467
16,YRIGPYQPNVP [MATR3_Y784],0.769
